What was measured:
[1] = target: T1, endogenous TET3 in C4-2CON and C4-2ENZ-R cells (human, UniProt O43151 1-1795, limits assumed); experiment: co-immunoprecipitation of endogenous proteins, C4-2CON and C4-2ENZ-R cells
T1 construct: Endogenous protein in cell lysate for co-IP

[2] = target: T2, endogenous TET1 in C4-2CON and C4-2ENZ-R cells (human, UniProt Q8NFU7 1-2136, limits assumed); experiment: as above
T2 construct: Endogenous protein in cell lysate for co-IP
T2 sequence (Q8NFU7 whole entry): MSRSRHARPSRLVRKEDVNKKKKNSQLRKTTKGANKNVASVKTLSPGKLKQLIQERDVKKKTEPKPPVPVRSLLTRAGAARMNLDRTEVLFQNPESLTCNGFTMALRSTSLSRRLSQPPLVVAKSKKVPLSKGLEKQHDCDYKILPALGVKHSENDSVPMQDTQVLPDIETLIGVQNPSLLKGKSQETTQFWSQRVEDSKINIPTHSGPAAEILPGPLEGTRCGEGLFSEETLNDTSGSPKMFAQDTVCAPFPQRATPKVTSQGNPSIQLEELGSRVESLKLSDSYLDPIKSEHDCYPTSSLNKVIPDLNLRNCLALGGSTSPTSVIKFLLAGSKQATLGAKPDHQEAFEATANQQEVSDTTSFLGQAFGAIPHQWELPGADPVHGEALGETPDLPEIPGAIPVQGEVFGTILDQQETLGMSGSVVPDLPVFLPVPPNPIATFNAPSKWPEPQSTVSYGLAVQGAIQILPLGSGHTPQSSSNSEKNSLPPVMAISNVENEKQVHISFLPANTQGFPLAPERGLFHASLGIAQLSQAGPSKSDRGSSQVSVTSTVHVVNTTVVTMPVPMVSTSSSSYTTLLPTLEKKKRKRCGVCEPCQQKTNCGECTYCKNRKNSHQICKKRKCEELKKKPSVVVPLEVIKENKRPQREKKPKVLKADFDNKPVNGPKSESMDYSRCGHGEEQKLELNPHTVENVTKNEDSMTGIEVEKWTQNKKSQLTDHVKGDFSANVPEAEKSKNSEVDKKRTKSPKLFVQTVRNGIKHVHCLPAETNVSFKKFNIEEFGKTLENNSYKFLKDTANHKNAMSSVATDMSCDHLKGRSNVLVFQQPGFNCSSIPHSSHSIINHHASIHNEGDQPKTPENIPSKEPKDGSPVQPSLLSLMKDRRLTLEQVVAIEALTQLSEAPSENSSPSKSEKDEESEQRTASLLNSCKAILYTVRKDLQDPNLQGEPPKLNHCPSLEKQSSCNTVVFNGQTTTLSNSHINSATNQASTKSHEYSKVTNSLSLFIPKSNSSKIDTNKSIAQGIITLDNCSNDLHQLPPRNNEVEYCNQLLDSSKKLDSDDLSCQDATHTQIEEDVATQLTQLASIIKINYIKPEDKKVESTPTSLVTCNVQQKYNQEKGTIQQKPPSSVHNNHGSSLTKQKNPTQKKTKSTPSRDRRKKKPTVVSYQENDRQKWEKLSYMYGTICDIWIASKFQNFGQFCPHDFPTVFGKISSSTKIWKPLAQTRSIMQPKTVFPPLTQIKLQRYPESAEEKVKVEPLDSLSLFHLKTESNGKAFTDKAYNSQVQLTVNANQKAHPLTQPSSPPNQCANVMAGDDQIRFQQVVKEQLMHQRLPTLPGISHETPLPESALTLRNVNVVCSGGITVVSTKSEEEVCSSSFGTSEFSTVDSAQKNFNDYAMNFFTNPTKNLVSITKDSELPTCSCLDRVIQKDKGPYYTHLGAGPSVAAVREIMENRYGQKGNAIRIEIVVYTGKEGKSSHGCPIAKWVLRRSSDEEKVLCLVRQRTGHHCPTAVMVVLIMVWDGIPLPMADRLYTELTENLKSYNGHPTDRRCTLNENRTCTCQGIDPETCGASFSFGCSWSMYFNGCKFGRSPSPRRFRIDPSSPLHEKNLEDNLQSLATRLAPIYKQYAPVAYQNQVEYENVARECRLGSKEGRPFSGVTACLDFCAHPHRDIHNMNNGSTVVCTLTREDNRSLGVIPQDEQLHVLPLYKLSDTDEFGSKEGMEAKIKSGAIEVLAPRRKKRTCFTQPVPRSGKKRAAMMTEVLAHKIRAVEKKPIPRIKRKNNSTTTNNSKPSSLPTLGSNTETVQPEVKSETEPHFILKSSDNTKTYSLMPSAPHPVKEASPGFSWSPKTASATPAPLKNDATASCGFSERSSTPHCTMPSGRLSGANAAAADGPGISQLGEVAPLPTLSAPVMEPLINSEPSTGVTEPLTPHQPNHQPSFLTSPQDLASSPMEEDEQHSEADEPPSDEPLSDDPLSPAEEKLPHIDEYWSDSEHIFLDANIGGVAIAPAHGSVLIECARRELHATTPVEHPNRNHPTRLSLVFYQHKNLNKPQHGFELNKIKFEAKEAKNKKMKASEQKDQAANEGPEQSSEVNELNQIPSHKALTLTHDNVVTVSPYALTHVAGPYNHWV

T1 sequence (O43151 whole entry): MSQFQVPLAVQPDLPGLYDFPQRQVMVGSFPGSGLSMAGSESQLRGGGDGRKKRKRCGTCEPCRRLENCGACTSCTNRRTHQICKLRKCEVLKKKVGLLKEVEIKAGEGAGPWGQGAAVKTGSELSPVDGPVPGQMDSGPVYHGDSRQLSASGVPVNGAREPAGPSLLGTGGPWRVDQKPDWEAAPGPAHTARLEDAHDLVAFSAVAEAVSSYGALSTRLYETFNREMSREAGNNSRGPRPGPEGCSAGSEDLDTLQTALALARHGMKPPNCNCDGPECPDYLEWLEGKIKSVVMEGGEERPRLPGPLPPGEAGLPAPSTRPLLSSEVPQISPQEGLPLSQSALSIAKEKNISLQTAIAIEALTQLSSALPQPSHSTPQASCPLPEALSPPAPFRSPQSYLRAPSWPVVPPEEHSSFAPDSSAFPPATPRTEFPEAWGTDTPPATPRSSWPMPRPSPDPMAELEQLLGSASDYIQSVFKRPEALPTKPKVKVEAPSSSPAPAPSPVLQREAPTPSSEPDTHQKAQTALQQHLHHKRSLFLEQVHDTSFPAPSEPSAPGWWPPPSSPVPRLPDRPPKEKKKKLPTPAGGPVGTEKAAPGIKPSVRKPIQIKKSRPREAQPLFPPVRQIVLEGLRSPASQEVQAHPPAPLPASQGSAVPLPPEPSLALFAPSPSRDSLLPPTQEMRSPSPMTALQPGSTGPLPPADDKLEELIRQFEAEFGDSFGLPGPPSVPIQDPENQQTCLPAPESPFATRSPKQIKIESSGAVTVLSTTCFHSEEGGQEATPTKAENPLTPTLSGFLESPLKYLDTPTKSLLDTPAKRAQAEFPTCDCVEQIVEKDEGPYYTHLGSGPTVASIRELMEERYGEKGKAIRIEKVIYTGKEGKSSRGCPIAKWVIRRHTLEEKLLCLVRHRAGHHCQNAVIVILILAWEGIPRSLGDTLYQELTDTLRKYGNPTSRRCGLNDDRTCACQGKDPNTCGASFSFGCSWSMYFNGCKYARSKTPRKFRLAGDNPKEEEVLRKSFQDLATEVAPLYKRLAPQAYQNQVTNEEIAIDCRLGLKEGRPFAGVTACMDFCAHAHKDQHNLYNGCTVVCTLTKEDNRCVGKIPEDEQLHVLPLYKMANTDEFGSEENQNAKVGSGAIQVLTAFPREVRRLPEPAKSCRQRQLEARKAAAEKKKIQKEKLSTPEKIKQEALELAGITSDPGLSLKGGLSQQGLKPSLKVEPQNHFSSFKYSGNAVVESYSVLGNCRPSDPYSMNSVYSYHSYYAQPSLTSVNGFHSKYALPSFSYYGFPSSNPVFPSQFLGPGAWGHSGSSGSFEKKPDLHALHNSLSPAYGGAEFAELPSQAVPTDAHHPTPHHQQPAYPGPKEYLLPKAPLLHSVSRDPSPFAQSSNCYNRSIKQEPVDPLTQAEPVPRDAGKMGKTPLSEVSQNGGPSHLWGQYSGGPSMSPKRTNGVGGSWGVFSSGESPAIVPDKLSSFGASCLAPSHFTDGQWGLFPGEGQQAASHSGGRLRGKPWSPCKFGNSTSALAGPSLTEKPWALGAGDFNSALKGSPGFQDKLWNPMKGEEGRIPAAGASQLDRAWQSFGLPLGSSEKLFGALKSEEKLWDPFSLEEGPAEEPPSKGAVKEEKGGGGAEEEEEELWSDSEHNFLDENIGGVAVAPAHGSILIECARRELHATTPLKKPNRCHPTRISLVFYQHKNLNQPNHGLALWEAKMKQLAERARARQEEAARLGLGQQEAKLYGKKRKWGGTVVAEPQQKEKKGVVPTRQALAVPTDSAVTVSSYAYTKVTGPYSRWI

B1: endogenous AR in C4-2CON and C4-2ENZ-R cells (receptor, human, UniProt P10275 1-920, looked up)
chain: MEVQLGLGRVYPRPPSKTYRGAFQNLFQSVREVIQNPGPRHPEAASAAPPGASLLLLQQQQQQQQQQQQQQQQQQQQQQQETSPRQQQQQQGEDGSPQAHRRGPTGYLVLDEEQQPSQPQSALECHPERGCVPEPGAAVAASKGLPQQLPAPPDEDDSAAPSTLSLLGPTFPGLSSCSADLKDILSEASTMQLLQQQQQEAVSEGSSSGRAREASGAPTSSKDNYLGGTSTISDNAKELCKAVSVSMGLGVEALEHLSPGEQLRGDCMYAPLLGVPPAVRPTPCAPLAECKGSLLDDSAGKSTEDTAEYSPFKGGYTKGLEGESLGCSGSAAAGSSGTLELPSTLSLYKSGALDEAAAYQSRDYYNFPLALAGPPPPPPPPHPHARIKLENPLDYGSAWAAAAAQCRYGDLASLHGAGAAGPGSGSPSAAASSSWHTLFTAEEGQLYGPCGGGGGGGGGGGGGGGGGGGGGGGEAGAVAPYGYTRPPQGLAGQESDFTAPDVWYPGGMVSRVPYPSPTCVKSEMGPWMDSYSGPYGDMRLETARDHVLPIDYYFPPQKTCLICGDEASGCHYGALTCGSCKVFFKRAAEGKQKYLCASRNDCTIDKFRRKNCPSCRLRKCYEAGMTLGARKLKKLGNLKLQEEGEASSTTSPTEETTQKLTVSHIEGYECQPIFLNVLEAIEPGVVCAGHDNNQPDSFAALLSSLNELGERQLVHVVKWAKALPGFRNLHVDDQMAVIQYSWMGLMVFAMGWRSFTNVNSRMLYFAPDLVFNEYRMHKSRMYSQCVRMRHLSQEFGWLQITPQEFLCMKALLLFSIIPVDGLKNQKFFDELRMNYIKELDRIIACKRKNPTSCSRRFYQLTKLLDSVQPIARELHQFTFDLLIKSHMVSVDFPEMMAEIISVQVPKILSGKVKPIYFHTQ
notes: also called androgen receptor; ARFL
binding result [1]: no binding | binding result [2]: no binding

From US20210003577A1 (MAYO FOUNDATION FOR MEDICAL EDUCATION AND RESEARCH, published 2021)
